We go through five molecules from patent publication US20190338029A1 (Y BIOLOGICS, published 2019).

Experiment [1] concerns the target T1, PD-L1 (PD-1/PD-L1 Blockade Bioassay kit, Promega) (UniProt Q9NZQ7 19-290, limits assumed). In words: cell-based or functional assay.
The target in experiment [2] is T1, PD-L1 (PD-1/PD-L1 Blockade Bioassay …). In words: cell-based or functional assay. This is another data set of the same source.
Experiment [3] has as its target T2, human PD-L1 (human, UniProt Q9NZQ7 19-238, limits assumed).
T2 construct: also called hPD-L1
In words: label-free kinetics on OCTET QKe (called SPR in the text), PD-L1 on AHC biosensor. How it is done:
(§1) Measurement of label-free kinetics (protein-protein interaction) using OCTET® QKe system (ForteBio, USA) was performed by using an anti-human IgG capture (AHC) biosensor (ForteBio, USA) for human PD-L1 and amine reactive (ARG2) biosensor for CD3εδ chains. […] Sensorgrams were collected over time.

The target of another experiment is CD3 (Sino Biological). In words: ELISA on CD3, curve fit. The procedure: (§2) Next day, plate was washed once with 200 μl of PBST, and then a surface blocking was performed at room temperature with 5% skim milk for 1-2 hours. […] Each well was then washed three times with 200 μl of PB ST to remove unbound samples. Horseradish peroxidase (HRP)-conjugated anti-human IgG (Fab specific) antibodies (Sigma, USA) were added to wells at a ratio of 1:1000 for a reaction at room temperature. After three times of washing with 200 ul of PBST, a color reaction of HRP was induced using TMB solution (GEhealthcare, USA) in a volume of 10 μl/well. The reaction was terminated by using a stop solution (2.5 M H2504, 100 μl/well). A spectrophotometer was used to measure the absorbance at a wavelength of A450 to calculate the binding affinity.

Experiment [4] has as its target T3, hCD3εγ chains.
T3 construct: copies: 1 + 1
T3 epsilon: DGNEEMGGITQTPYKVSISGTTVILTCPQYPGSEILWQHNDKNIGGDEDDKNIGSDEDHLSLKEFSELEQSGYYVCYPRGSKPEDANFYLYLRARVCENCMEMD
T3 gamma: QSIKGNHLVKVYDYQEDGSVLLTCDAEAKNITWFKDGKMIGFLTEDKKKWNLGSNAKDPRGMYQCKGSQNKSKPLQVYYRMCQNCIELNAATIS
In words: ELISA on hCD3εγ chains, curve fit. How it is done:
as §2
A general note: An ELISA detects its analyte on a solid surface through an enzyme-linked reagent.

Experiment [5] has as its target T4, CD3 on Jurkat luciferase reporter cells (Homo sapiens (Human), UniProt P07766 23-207; P09693 23-182; P04234 22-171).
T4 construct: also called CD3 positive Jurkat cell line with NFAT luciferase reporter
Nature of the experiment: flow cytometry on Jurkat_NFAT_Luc2P cells, FITC-A; histogram shifted to about 10^3. For orientation: In flow cytometry, cells or beads pass a laser one at a time.

The target in a further experiment is T5, hCD3εε chains.
T5 epsilon: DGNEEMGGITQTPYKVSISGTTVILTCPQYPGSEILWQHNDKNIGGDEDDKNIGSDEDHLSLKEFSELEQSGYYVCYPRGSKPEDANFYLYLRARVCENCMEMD
Nature of the experiment: ELISA on hCD3εε chains. How it is done: as §2

The target in experiment [6] is T3, hCD3εγ chains. Nature of the experiment: ELISA on hCD3εγ chains, curve fit of a flat curve. The procedure: as §2
The target in experiment [7] is T2, human PD-L1. In words: label-free kinetics on OCTET QKe, PD-L1 on AHC biosensor; PD-L1 fixed on AHC biosensor (OCTET QKe). How it is done: as §1

T1 sequence (Q9NZQ7 19-290 limits assumed): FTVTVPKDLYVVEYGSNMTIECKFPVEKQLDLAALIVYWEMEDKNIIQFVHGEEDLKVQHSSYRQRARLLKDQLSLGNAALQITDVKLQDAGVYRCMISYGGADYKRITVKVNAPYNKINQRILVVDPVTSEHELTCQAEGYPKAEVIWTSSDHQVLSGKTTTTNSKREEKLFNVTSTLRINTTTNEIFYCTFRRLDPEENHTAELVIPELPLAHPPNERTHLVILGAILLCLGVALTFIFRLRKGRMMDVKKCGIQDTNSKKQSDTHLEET
T2 sequence (Q9NZQ7 19-238 limits assumed): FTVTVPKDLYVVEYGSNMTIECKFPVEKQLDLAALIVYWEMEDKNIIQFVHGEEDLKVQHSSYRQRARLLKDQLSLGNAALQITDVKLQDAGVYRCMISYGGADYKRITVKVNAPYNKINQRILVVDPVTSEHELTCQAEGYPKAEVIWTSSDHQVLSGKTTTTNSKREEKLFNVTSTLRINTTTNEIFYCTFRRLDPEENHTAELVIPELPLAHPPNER

B1: YBL-007 (antibody, V domains shown)
VH: QMQLVQSGAEVKKPGSSVKVSCKASGGTFSSYAISWVRQAPGQGLEWMGRIIPILGIANYAQKFQGRVTITADKSTSTAYMELSSLRSEDTAVYYCAKPRDGYNLVAFDIWGQGTMVTVSS
VL: QLVLTQPPSVSGAPGQRVTISCTGSSSNIGAGYDVHWYQQLPGAAPKLLIYGDINRPSGVPDRFSGSKSGISASLAITGLQAEDEADYYCQSYDSSLSGGVFGGGTKLTVLR
notes: also called parental anti-PD-L1 antibody; anti-hPD-L1 antibody
Consider B1, for which, in experiment [1], the “EC50 (read off the curve); luciferase RLU in the PD-1/PD-L1 Blockade Bioassay, blocked partner PD-1” value (“EC50 (read off the curve)” below) is ~0.05 µg/mL. Further, the “EC50; luciferase RLU in the PD-1/PD-L1 Blockade Bioassay, blocked partner PD-1” value in experiment [2] worked out at 0.0112 nM. Also, the affinity in the experiment with human PD-L1 [3], expressed as Kd, was 0.0132 nM.

B2: UCHT1 (an anti-CD3 antibody from BioLegend, USA) (antibody, V domains shown)
VH: EVQLQQSGPELVKPGPSMKISCKASGYSFTGYTMNWVKQSHGKNLEWMGLINPYKGVSTYNQKFKDKATLTVDKSSSTAYMELLSLTSEDSAVYYCARSGYYGDSDWYFDVWGQGTTLTVFS
VL: DIQMTQTTSSLSASLGDRVTISCRASQDIRNYLNWYQQKPDGTVKLLIYYTSRLHSGVPSKFSGSGSGTDYSLTISNLEQEDIATYFCQQGNTLPWTFAGGTKLEIKR
notes: Bought antibody; also called parental anti-CD3 antibody
As for B2, in the experiment with CD3 (Sino Biological), the Bmax came out at 3.67 O.D. 450 nm and binding was put at a Kd of 2.69 nM. Moreover, in the experiment with hCD3εγ chains [4], the Kd (as a rule, a measure of binding affinity in units of concentration) was 33.3 nM. Besides, the Fold in [5] is 35 fold over hIgG.

B3: ACE-05 (bispecific antibody)
heavy 1: not shown
heavy 2: not shown
light: QLVLTQPPSVSGAPGQRVTISCTGSSSNIGAGYDVHWYQQLPGAAPKLLIYGDINRPSGVPDRFSGSKSGISASLAITGLQAEDEADYYCQSYDSSLSGGVFGGGTKLTVLRTVAAPSVFIFPPSDEQLKSGTASVVCLLNNFYPREAKVQWKVDNALQSGNSQESVTEQDSKDSTYSLSSTLTLSKADYEKHKVYACEVTHQGLSSPVTKSFNRGEC
notes: Contains a GGGGS linker between the hinge and the Fv; also called ALiCE molecule ACE-05
Regarding B3, the binding result in the experiment with hCD3εε chains is “no binding (tested: 100 nM)”. In the experiment with CD3 (Sino Biological), this molecule came in with a Bmax of 3.97 O.D. 450 nm and a Kd of 17.6 nM. The “EC50 (read off the curve)” value in experiment [1] was ~0.02 µg/mL. Besides, the “EC50; luciferase RLU in the PD-1/PD-L1 Blockade Bioassay, blocked partner PD-1” value in [2] was 0.00429 nM. Moreover, in the experiment with hCD3εγ chains [6], the “Kd (fit value of a flat curve)” value amounted to 0.035 nM. The Kd with human PD-L1 [7] was < 0.0109 nM.

B4: ACE-09 (bispecific antibody)
heavy 1: not shown
heavy 2: not shown
light: QLVLTQPPSVSGAPGQRVTISCTGSSSNIGAGYDVHWYQQLPGAAPKLLIYGDINRPSGVPDRFSGSKSGISASLAITGLQAEDEADYYCQSYDSSLSGGVFGGGTKLTVLRSVAAPSVFIFPPSDEQLKSGTASVVCLLNNFYPREAKVQWKVDNALQSGNSQESVTEQDSKDSTYSLSSTLTLSKADYEKHKVYACEVTHQGLSSPVTKSFNRGEC
Turning to B4, in the experiment with CD3 (Sino Biological), the Bmax came to 4.04 O.D. 450 nm and binding was put at a Kd of 21.1 nM.

B5: ACE-05-VL2 (other)
heavy: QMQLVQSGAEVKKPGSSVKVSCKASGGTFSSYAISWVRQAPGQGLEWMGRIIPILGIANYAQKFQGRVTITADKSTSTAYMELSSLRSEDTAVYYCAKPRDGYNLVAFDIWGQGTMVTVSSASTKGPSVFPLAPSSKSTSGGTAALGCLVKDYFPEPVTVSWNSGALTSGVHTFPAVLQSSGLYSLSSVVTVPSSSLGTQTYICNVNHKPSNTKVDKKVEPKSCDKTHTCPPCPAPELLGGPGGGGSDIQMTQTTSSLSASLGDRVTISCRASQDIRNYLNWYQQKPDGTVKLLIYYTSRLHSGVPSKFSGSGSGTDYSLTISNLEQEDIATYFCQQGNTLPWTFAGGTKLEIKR
light: QLVLTQPPSVSGAPGQRVTISCTGSSSNIGAGYDVHWYQQLPGAAPKLLIYGDINRPSGVPDRFSGSKSGISASLAITGLQAEDEADYYCQSYDSSLSGGVFGGGTKLTVLRTVAAPSVFIFPPSDEQLKSGTASVVCLLNNFYPREAKVQWKVDNALQSGNSQESVTEQDSKDSTYSLSSTLTLSKADYEKHKVYACEVTHQGLSSPVTKSFNRGEC
Turning to B5, the “EC50 (read off the curve)” value in experiment [1] is ~0.08 µg/mL.
